Experimental data reported in the supplement of paper PMC11136658.

System: peptide library, one residue held at a place counted from the Y acceptor
Test: relative phosphorylation of the sub-library (ratio to the mean residue at this position); higher = residue favoured
How it was run: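 Within 384-well plates, purified recombinant kinases phosphorylated biotinylated Tyr-centred peptide library mixtures over 90 min using 50 μM ATP spiked with γ-32P-ATP; each mixture fixed one residue at one position from −5 to +5. Streptavidin membrane capture, rinsing, phosphorimaging and ImageQuant gave the intensities. These were normalized per position to the sum of the 18 randomized residues (16 for the Ser/Thr-free library) and multiplied by that number.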

EPHA5, construct: aa662-948, human, sequence (P54756 662-948, looked up): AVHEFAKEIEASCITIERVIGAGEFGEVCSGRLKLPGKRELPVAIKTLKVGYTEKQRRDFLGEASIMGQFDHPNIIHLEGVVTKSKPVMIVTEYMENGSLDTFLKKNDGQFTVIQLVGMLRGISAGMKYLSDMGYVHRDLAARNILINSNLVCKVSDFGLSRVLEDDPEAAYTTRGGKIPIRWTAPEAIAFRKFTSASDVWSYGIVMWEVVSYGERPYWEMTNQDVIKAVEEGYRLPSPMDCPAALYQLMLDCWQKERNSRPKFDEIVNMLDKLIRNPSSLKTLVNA
EPHA7, construct: aa579-end, human, sequence (Q15375 579-998, looked up): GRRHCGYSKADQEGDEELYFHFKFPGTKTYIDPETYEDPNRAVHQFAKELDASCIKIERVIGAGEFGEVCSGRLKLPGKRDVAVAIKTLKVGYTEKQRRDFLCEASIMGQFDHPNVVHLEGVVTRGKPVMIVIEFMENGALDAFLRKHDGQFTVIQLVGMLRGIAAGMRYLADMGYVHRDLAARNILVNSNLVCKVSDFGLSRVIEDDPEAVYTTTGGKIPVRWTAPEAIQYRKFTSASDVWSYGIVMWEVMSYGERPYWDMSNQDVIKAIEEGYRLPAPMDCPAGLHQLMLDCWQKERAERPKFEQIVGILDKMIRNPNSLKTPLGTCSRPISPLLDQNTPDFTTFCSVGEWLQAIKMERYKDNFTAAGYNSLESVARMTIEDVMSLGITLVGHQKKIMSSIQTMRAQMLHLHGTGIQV
EPHA6, construct: aa683-end, human, sequence (Q9UF33 683-1036, looked up): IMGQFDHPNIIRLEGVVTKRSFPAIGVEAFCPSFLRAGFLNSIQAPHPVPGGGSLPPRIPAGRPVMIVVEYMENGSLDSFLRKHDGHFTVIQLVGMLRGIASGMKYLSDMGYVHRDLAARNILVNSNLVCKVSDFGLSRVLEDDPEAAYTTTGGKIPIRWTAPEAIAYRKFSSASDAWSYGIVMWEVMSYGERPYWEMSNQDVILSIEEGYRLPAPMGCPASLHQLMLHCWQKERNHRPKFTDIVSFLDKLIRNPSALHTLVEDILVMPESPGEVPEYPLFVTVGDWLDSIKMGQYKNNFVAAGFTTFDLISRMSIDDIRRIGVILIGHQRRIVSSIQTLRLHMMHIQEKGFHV

EPHA5, construct: aa662-948, human (from UniProt P54756)
relative phosphorylation
Conditions | at +1 | at +2 | at +3 | at +4 | at +5 | at -1 | at -2 | at -3 | at -4 | at -5
A fixed | 1.5 | 0.555 | 0.644 | 0.75 | 1 | 0.44 | 1.06 | 0.741 | 1.03 | 0.879
D fixed | 1.25 | 1.88 | 0.493 | 1.3 | 1.25 | 2.92 | 1.34 | 1.4 | 1.22 | 1.11
E fixed | 3.4 | 2.46 | 0.463 | 1.35 | 1.27 | 1.59 | 1.56 | 1.74 | 1.5 | 1.07
F fixed | 0.713 | 1.41 | 1.41 | 1.07 | 1.01 | 1.03 | 0.671 | 1.35 | 1.11 | 1.06
G fixed | 0.825 | 0.275 | 0.426 | 1.21 | 1.2 | 0.215 | 1.14 | 0.85 | 1.18 | 1.14
H fixed | 0.529 | 0.834 | 0.862 | 1.2 | 0.903 | 0.651 | 0.89 | 1.03 | 1.02 | 1.08
I fixed | 1.05 | 0.877 | 2.62 | 0.716 | 0.778 | 1.83 | 0.725 | 0.845 | 0.83 | 0.973
K fixed | 0.174 | 0.329 | 0.218 | 0.638 | 0.64 | 0.203 | 0.779 | 0.604 | 0.778 | 0.921
L fixed | 0.847 | 0.869 | 1.85 | 0.707 | 0.916 | 1.74 | 0.789 | 0.877 | 1 | 0.983
M fixed | 1.53 | 0.976 | 1.37 | 0.965 | 0.97 | 0.815 | 0.604 | 0.935 | 0.891 | 1.02
N fixed | 0.48 | 1.18 | 0.477 | 0.805 | 0.906 | 2.59 | 1.28 | 1.12 | 0.966 | 1.11
P fixed | 0.144 | 0.481 | 1.39 | 1.19 | 1.53 | 0.333 | 1.21 | 0.953 | 1.16 | 0.983
Q fixed | 1.31 | 0.857 | 0.867 | 1.01 | 0.961 | 0.465 | 1.23 | 0.966 | 1.2 | 1.18
R fixed | 0.224 | 0.47 | 0.35 | 0.832 | 0.763 | 0.232 | 0.883 | 0.751 | 0.885 | 0.968
S fixed | 0.756 | 0.622 | 0.514 | 0.925 | 1.04 | 0.437 | 1.39 | 0.868 | 0.749 | 0.822
T fixed | 0.62 | 0.772 | 0.563 | 0.937 | 0.859 | 0.924 | 0.885 | 0.893 | 0.64 | 0.824
V fixed | 1.5 | 0.912 | 1.95 | 0.729 | 0.802 | 0.932 | 0.829 | 0.806 | 0.776 | 0.757
W fixed | 1.15 | 2.25 | 1.52 | 1.68 | 1.2 | 0.662 | 0.729 | 1.29 | 1.05 | 1.12
pThr fixed | 1.77 | 2.65 | 0.559 | 1.37 | 1.06 | 1.87 | 1.13 | 0.996 | 0.952 | 0.917
pTyr fixed | 2.61 | 6.1 | 1.08 | 1.72 | 1.61 | 2.82 | 1.52 | 1.25 | 1.29 | 1.15

EPHA6, construct: aa683-end, human (from UniProt Q9UF33)
relative phosphorylation
Conditions | at +1 | at +2 | at +3 | at +4 | at +5 | at -1 | at -2 | at -3 | at -4 | at -5
A fixed | 1.7 | 0.891 | 0.971 | 1.03 | 0.87 | 0.838 | 1.39 | 0.94 | 1.57 | 1.47
D fixed | 0.944 | 1.3 | 0.585 | 0.688 | 0.91 | 2.67 | 1.15 | 1.18 | 0.754 | 0.894
E fixed | 2.3 | 1.3 | 0.541 | 0.818 | 0.966 | 1.73 | 1.22 | 1.36 | 1.03 | 0.788
F fixed | 0.862 | 1.19 | 0.94 | 1.06 | 1.12 | 0.701 | 0.668 | 1.09 | 0.859 | 0.811
G fixed | 0.699 | 0.438 | 0.61 | 1.12 | 0.966 | 0.427 | 0.758 | 0.853 | 1.27 | 1.22
H fixed | 0.72 | 1.13 | 1.03 | 1.15 | 1.24 | 0.733 | 0.886 | 1.01 | 0.973 | 1.21
I fixed | 1.02 | 0.984 | 1.93 | 1 | 0.811 | 1.92 | 0.966 | 1.5 | 1.3 | 0.707
K fixed | 0.62 | 1.03 | 0.901 | 1.06 | 1.04 | 0.593 | 1.17 | 0.842 | 0.944 | 1.15
L fixed | 0.792 | 0.964 | 1.56 | 0.86 | 0.92 | 1.29 | 1.07 | 0.873 | 0.847 | 0.703
M fixed | 1.08 | 0.917 | 1.26 | 0.988 | 0.955 | 0.737 | 0.85 | 0.943 | 0.881 | 0.802
N fixed | 0.649 | 1.04 | 0.522 | 0.74 | 0.947 | 1.61 | 0.922 | 0.818 | 0.754 | 0.982
P fixed | 0.352 | 0.594 | 1.05 | 1.29 | 1.03 | 0.504 | 1.2 | 0.876 | 1.15 | 1.03
Q fixed | 1.31 | 0.779 | 0.716 | 0.882 | 0.942 | 0.535 | 1.02 | 0.735 | 0.942 | 0.998
R fixed | 0.916 | 1.3 | 1.06 | 1.27 | 1.09 | 0.63 | 1.3 | 1.01 | 1.05 | 1.45
S fixed | 0.808 | 0.748 | 0.684 | 0.848 | 0.993 | 0.535 | 1.21 | 0.951 | 0.826 | 0.949
T fixed | 0.678 | 0.703 | 0.673 | 0.794 | 0.979 | 0.798 | 0.84 | 0.893 | 0.755 | 0.91
V fixed | 1.54 | 1.06 | 1.64 | 1.08 | 0.85 | 1.2 | 0.781 | 1.11 | 1.2 | 0.954
W fixed | 1 | 1.64 | 1.32 | 1.32 | 1.36 | 0.528 | 0.605 | 1.01 | 0.894 | 0.981
pThr fixed | 1.37 | 1.63 | 0.624 | 0.561 | 0.816 | 2.9 | 1.03 | 0.842 | 0.799 | 0.686
pTyr fixed | 1.48 | 3.8 | 0.659 | 0.576 | 1.01 | 2.12 | 0.946 | 0.911 | 0.73 | 0.677

EPHA7, construct: aa579-end, human (from UniProt Q15375)
relative phosphorylation
Conditions | at +1 | at +2 | at +3 | at +4 | at +5 | at -1 | at -2 | at -3 | at -4 | at -5
A fixed | 1.63 | 0.698 | 0.618 | 0.79 | 1.04 | 0.492 | 1.21 | 0.817 | 1.18 | 1.03
D fixed | 0.804 | 1.37 | 0.44 | 0.936 | 0.981 | 2.01 | 1.07 | 1.12 | 1.17 | 1.05
E fixed | 3 | 1.79 | 0.398 | 1.01 | 1.04 | 1.39 | 1.31 | 1.43 | 1.14 | 0.918
F fixed | 0.661 | 1.31 | 1.7 | 1.08 | 1.13 | 0.92 | 0.747 | 1.48 | 1.07 | 1.03
G fixed | 0.476 | 0.39 | 0.464 | 1.21 | 1.12 | 0.251 | 1.15 | 0.953 | 1.34 | 1.19
H fixed | 0.495 | 0.916 | 0.855 | 1.29 | 0.953 | 0.625 | 0.779 | 1.06 | 0.852 | 0.96
I fixed | 1.65 | 1.04 | 2.77 | 0.729 | 0.818 | 2.61 | 0.88 | 1.08 | 0.939 | 1.04
K fixed | 0.271 | 0.522 | 0.329 | 0.822 | 0.809 | 0.3 | 0.926 | 0.591 | 0.875 | 0.993
L fixed | 0.905 | 0.894 | 1.97 | 0.718 | 1.03 | 2.03 | 0.845 | 0.944 | 1.11 | 0.96
M fixed | 1.41 | 0.935 | 1.15 | 1.03 | 0.988 | 0.872 | 0.663 | 0.913 | 0.883 | 0.921
N fixed | 0.429 | 1.21 | 0.479 | 0.793 | 0.815 | 1.99 | 0.985 | 0.995 | 0.772 | 1.1
P fixed | 0.204 | 0.609 | 0.93 | 1.4 | 1.64 | 0.346 | 1.51 | 1.15 | 1.33 | 1.11
Q fixed | 1.08 | 0.742 | 0.692 | 0.778 | 0.782 | 0.439 | 1.09 | 0.706 | 1.04 | 0.94
R fixed | 0.358 | 0.924 | 0.455 | 1.03 | 0.859 | 0.489 | 1.05 | 0.759 | 0.945 | 1.1
S fixed | 0.725 | 0.769 | 0.537 | 0.853 | 0.994 | 0.457 | 1.26 | 0.877 | 0.784 | 0.834
T fixed | 0.803 | 0.994 | 0.615 | 0.904 | 1.01 | 1.1 | 0.921 | 0.895 | 0.673 | 0.851
V fixed | 2.03 | 1.04 | 2.05 | 0.733 | 0.797 | 1.1 | 0.936 | 0.876 | 0.822 | 0.831
W fixed | 1.06 | 1.84 | 1.55 | 1.89 | 1.19 | 0.569 | 0.67 | 1.36 | 1.07 | 1.15
pThr fixed | 1.8 | 2.11 | 0.552 | 0.851 | 0.651 | 2.07 | 0.877 | 0.772 | 0.877 | 0.834
pTyr fixed | 1.98 | 6.7 | 0.866 | 1.14 | 0.865 | 1.94 | 0.896 | 1.02 | 1.08 | 1.12
